The results in this text go back to PMC3750179.

One assay deals with Myc-GABAB1 (UniProt Q9Z0U4). Kind of assay: co-IP; cell surface immunoprecipitation: intact COS-1 cells incubated with mouse anti-Myc on ice for 3 h, then PBS or 100 μM baclofen for 15 min, lysed, protein G-agarose, Western blot; cells also expressed HA-GABAB2. On the technique in general: A western blot detects proteins with antibodies after separation by electrophoresis.
The target of a further assay is HA-GABAB2 (UniProt O88871).
Chain of UniProt O88871 (O88871 41-940): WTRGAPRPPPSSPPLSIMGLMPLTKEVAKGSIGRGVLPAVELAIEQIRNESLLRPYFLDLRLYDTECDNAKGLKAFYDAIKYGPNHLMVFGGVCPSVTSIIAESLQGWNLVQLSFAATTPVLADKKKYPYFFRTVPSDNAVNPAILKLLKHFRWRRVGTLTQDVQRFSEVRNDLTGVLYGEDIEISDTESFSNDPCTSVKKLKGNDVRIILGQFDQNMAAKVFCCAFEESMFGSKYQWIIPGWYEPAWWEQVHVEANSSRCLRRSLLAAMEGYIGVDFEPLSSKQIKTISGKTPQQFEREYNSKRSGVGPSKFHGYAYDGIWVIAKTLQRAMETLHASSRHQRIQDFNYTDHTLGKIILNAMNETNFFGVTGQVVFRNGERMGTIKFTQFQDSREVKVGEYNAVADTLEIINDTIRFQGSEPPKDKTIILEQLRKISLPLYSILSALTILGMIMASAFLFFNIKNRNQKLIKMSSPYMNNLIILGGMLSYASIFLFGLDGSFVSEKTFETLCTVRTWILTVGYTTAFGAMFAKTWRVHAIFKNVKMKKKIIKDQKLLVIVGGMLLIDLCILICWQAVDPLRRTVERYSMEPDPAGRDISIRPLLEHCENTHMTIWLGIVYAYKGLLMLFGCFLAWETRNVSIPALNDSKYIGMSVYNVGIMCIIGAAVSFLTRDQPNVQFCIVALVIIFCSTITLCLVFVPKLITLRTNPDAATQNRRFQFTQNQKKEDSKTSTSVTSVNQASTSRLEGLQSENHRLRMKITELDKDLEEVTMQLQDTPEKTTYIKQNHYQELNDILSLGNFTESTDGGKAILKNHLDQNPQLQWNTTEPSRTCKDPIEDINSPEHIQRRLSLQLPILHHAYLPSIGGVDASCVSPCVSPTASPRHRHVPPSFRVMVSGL
For a further assay, the target named is HA-GABAB1-YFP (UniProt Q9Z0U4). Description: FRET or BRET; BRET donor saturation curves in intact COS-1 cells: fixed Rluc fusion (donor) and fixed GABAB2, increasing GABAB1-YFP (acceptor); coelenterazine h 5 μM; PBS or 100 μM baclofen for 15 min; fit with a single binding site. In general terms: In BRET a luciferase serves as donor, and the signal depends on an acceptor being close.

As for “FLAG-KCTD12 (from UniProt Q6WVG3 1-327) (natural protein)”, in the assay with Myc-GABAB1, the ratio of KCTD12:GABAB1 band intensity on Western blots (PBS) stood at 0.84 and the ratio of KCTD12:GABAB1 band intensity on Western blots (baclofen) was found to be 0.91.

“Myc-GABAB1 (from UniProt Q9Z0U4 20-960) (receptor)” returned an Endo H-resistant fraction of GABAB1 protein in COS-1 cells co-expressing GABAB1 and GABAB2 (all GABAB1 Endo H-sensitive without GABAB2) with HA-GABAB2 of 44.5%.

With “Rluc-KCTD12 (from UniProt Q6WVG3 1-327) (natural protein)”, the BRET50 in the assay with HA-GABAB1-YFP amounted to 0.026.
